In US20140087995A1 (published 2014):
Numbered stars: 1 amine (or outer) side, 2 acyl side, 3 side chain; on linkers, the order of the positions; unused ones are H or OH. Bridge positions count the residues as written; N and C are the ends. Side chains are listed from the residue outwards. Ends that are not written are not given here. * marks the point of attachment. C20 diacid = O=C(O)CCCCCCCCCCCCCCCCCCC(=O)*; γGlu = O=C(O)[C@H](CCC(=O)[*:2])N[*:1]; AEEA = NCCOCCOCC(=O)O

T1: rat calcitonin receptor (rat, UniProt P32214 25-516)
T1 construct: whole, on cells; Used as membranes prepared from the transfected cells; also called rCTR; rat calcitonin (a) receptor
T1 sequence (looked up): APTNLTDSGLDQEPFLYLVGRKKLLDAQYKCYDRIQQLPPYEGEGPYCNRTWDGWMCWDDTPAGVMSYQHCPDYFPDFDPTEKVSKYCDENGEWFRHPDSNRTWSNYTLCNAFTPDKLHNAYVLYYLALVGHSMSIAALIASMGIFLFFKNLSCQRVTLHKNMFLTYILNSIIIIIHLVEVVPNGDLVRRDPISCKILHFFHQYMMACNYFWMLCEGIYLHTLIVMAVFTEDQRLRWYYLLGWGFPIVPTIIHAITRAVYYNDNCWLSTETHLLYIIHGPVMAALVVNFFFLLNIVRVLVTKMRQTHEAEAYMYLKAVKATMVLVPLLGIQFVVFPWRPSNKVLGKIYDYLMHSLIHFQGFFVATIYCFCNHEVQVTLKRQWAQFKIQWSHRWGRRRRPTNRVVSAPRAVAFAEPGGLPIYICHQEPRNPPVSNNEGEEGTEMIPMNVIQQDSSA

T2: rat amylin receptor (rat calcitonin receptor + rat RAMP 3) (rat, UniProt P32214 25-516; Q9JJ73 23-147)
T2 construct: whole, on cells; Used as membranes prepared from the transfected cells; also called rAmylin-R; rat amylin 3(a) receptor
T2 sequence (looked up) 1: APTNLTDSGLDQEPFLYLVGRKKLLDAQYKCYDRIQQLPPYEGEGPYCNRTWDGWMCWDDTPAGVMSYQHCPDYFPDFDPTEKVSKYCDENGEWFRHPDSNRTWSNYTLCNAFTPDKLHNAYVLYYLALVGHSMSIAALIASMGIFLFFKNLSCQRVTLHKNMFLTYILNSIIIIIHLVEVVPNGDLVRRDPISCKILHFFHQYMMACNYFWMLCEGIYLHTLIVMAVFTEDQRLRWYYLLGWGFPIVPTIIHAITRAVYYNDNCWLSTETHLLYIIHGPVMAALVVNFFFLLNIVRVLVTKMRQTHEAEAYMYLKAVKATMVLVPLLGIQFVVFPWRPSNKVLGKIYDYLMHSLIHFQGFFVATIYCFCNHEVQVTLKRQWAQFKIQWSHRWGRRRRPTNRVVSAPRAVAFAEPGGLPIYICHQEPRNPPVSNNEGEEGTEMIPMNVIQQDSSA
T2 sequence (looked up) 2: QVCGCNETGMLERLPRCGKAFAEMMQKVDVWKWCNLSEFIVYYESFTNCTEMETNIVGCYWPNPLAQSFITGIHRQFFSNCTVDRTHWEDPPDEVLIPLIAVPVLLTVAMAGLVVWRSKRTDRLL

T3: human calcitonin receptor (human, UniProt P30988 25-474)
T3 construct: whole, on cells; Used as membranes prepared from the transfected cells (Assay VII); also called hCTR; hCT
T3 sequence (looked up): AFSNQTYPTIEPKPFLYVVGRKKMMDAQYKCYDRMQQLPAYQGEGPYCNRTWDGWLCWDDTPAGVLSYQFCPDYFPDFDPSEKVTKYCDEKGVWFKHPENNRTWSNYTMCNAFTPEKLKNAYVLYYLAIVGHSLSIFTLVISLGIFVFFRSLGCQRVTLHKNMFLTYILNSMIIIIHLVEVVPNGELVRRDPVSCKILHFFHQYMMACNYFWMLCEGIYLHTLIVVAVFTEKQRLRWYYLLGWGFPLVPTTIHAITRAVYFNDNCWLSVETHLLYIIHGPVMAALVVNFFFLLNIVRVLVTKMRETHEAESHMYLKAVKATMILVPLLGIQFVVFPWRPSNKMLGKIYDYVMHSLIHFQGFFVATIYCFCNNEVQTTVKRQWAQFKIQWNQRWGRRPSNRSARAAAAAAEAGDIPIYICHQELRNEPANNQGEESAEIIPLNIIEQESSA


Legend:
[1] = target: T1, rat calcitonin receptor; assay: SPA competition with 125I-calcitonin, membranes of BHK cells with rat calcitonin receptor (Assay VIII)
[2] = target: T2, rat amylin receptor (rat calcitonin …); assay: SPA competition with 125I-rat amylin, membranes of BHK cells with rat calcitonin receptor + rat RAMP3 (Assay VI)
[3] = target: T1, rat calcitonin receptor; assay: ratio IC50 rat calcitonin receptor / IC50 rat amylin receptor (Assays VIII and VI)
[4] = target: T3, human calcitonin receptor; assay: ratio IC50 human calcitonin receptor / IC50 human amylin receptor (Assays VII and V)
Procedure, shortened: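 Membranes (35 ng/μL final) + SPA beads, 50 mM Hepes pH 7.4 buffer with 1 mM CaCl2, 5 mM MgCl₂, 0.1% OA, 0.02% Tween20; 120 min, 25° C, shaking; centrifuged, counted; IC₅₀ by one-site binding competition.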

IC50 [1] [nM]	IC50 [2] [nM]	Ratio rCT/rAmylin binding [3]	Ratio hCT/hAmylin binding [4]	Binder
131	3.48	37.7	56.5	K([AEEA-AEEA-γGlu-C20 diacid])CNTATCATQRLANFLRHSSPNFGAIPSSTNVGSETY-NH2 (disulfide 2-7; N-terminus assumed; SMILES CC[C@H](C)[C@H](NC(=O)[C@H](C)NC(=O)CNC(=O)[C@H](Cc1ccccc1)NC(=O)[C@H](CC(N)=O)NC(=O)[C@@H]1CCCN1C(=O)[C@H](CO)NC(=O)[C@H](CO)NC(=O)[C@H](Cc1c[nH]cn1)NC(=O)[C@H](CCCNC(=N)N)NC(=O)[C@H](CC(C)C)NC(=O)[C@H](Cc1ccccc1)NC(=O)[C@H](CC(N)=O)NC(=O)[C@H](C)NC(=O)[C@H](CC(C)C)NC(=O)[C@H](CCCNC(=N)N)NC(=O)[C@H](CCC(N)=O)NC(=O)[C@@H](NC(=O)[C@H](C)NC(=O)[C@@H]1CSSC[C@H](NC(=O)[C@@H](N)CCCCNC(=O)COCCOCCNC(=O)COCCOCCNC(=O)CC[C@H](NC(=O)CCCCCCCCCCCCCCCCCCC(=O)O)C(=O)O)C(=O)N[C@@H](CC(N)=O)C(=O)N[C@@H]([C@@H](C)O)C(=O)N[C@@H](C)C(=O)N[C@@H]([C@@H](C)O)C(=O)N1)[C@@H](C)O)C(=O)N1CCC[C@H]1C(=O)N[C@@H](CO)C(=O)N[C@@H](CO)C(=O)N[C@H](C(=O)N[C@@H](CC(N)=O)C(=O)N[C@H](C(=O)NCC(=O)N[C@@H](CO)C(=O)N[C@@H](CCC(=O)O)C(=O)N[C@H](C(=O)N[C@@H](Cc1ccc(O)cc1)C(N)=O)[C@@H](C)O)C(C)C)[C@@H](C)O, Derivative of human amylin; also called compound 25)
152	0.491	309	47.5	K([AEEA-γGlu-C20 diacid])CNTATCATQRLANFLRHSSPNFGAIPSSTNVGSETY-NH2 (disulfide 2-7; N-terminus assumed; SMILES CC[C@H](C)[C@H](NC(=O)[C@H](C)NC(=O)CNC(=O)[C@H](Cc1ccccc1)NC(=O)[C@H](CC(N)=O)NC(=O)[C@@H]1CCCN1C(=O)[C@H](CO)NC(=O)[C@H](CO)NC(=O)[C@H](Cc1c[nH]cn1)NC(=O)[C@H](CCCNC(=N)N)NC(=O)[C@H](CC(C)C)NC(=O)[C@H](Cc1ccccc1)NC(=O)[C@H](CC(N)=O)NC(=O)[C@H](C)NC(=O)[C@H](CC(C)C)NC(=O)[C@H](CCCNC(=N)N)NC(=O)[C@H](CCC(N)=O)NC(=O)[C@@H](NC(=O)[C@H](C)NC(=O)[C@@H]1CSSC[C@H](NC(=O)[C@@H](N)CCCCNC(=O)COCCOCCNC(=O)CC[C@H](NC(=O)CCCCCCCCCCCCCCCCCCC(=O)O)C(=O)O)C(=O)N[C@@H](CC(N)=O)C(=O)N[C@@H]([C@@H](C)O)C(=O)N[C@@H](C)C(=O)N[C@@H]([C@@H](C)O)C(=O)N1)[C@@H](C)O)C(=O)N1CCC[C@H]1C(=O)N[C@@H](CO)C(=O)N[C@@H](CO)C(=O)N[C@H](C(=O)N[C@@H](CC(N)=O)C(=O)N[C@H](C(=O)NCC(=O)N[C@@H](CO)C(=O)N[C@@H](CCC(=O)O)C(=O)N[C@H](C(=O)N[C@@H](Cc1ccc(O)cc1)C(N)=O)[C@@H](C)O)C(C)C)[C@@H](C)O, Derivative of human amylin; also called compound 26)
74.1	1.37	54	49.9	K([AEEA-γGlu-C20 diacid])CNTATCATQRLANFLRHSSPNFGAIPSSTNVGSNTY-NH2 (disulfide 2-7; N-terminus assumed; SMILES CC[C@H](C)[C@H](NC(=O)[C@H](C)NC(=O)CNC(=O)[C@H](Cc1ccccc1)NC(=O)[C@H](CC(N)=O)NC(=O)[C@@H]1CCCN1C(=O)[C@H](CO)NC(=O)[C@H](CO)NC(=O)[C@H](Cc1c[nH]cn1)NC(=O)[C@H](CCCNC(=N)N)NC(=O)[C@H](CC(C)C)NC(=O)[C@H](Cc1ccccc1)NC(=O)[C@H](CC(N)=O)NC(=O)[C@H](C)NC(=O)[C@H](CC(C)C)NC(=O)[C@H](CCCNC(=N)N)NC(=O)[C@H](CCC(N)=O)NC(=O)[C@@H](NC(=O)[C@H](C)NC(=O)[C@@H]1CSSC[C@H](NC(=O)[C@@H](N)CCCCNC(=O)COCCOCCNC(=O)CC[C@H](NC(=O)CCCCCCCCCCCCCCCCCCC(=O)O)C(=O)O)C(=O)N[C@@H](CC(N)=O)C(=O)N[C@@H]([C@@H](C)O)C(=O)N[C@@H](C)C(=O)N[C@@H]([C@@H](C)O)C(=O)N1)[C@@H](C)O)C(=O)N1CCC[C@H]1C(=O)N[C@@H](CO)C(=O)N[C@@H](CO)C(=O)N[C@H](C(=O)N[C@@H](CC(N)=O)C(=O)N[C@H](C(=O)NCC(=O)N[C@@H](CO)C(=O)N[C@@H](CC(N)=O)C(=O)N[C@H](C(=O)N[C@@H](Cc1ccc(O)cc1)C(N)=O)[C@@H](C)O)C(C)C)[C@@H](C)O, Derivative of human amylin; also called compound 41)
90.2	0.614	147	41.3	K([γGlu-C20 diacid])CNTATCATQRLANFLRHSSPNFGAIPSSTNVGSETY-NH2 (disulfide 2-7; N-terminus assumed; SMILES CC[C@H](C)[C@H](NC(=O)[C@H](C)NC(=O)CNC(=O)[C@H](Cc1ccccc1)NC(=O)[C@H](CC(N)=O)NC(=O)[C@@H]1CCCN1C(=O)[C@H](CO)NC(=O)[C@H](CO)NC(=O)[C@H](Cc1c[nH]cn1)NC(=O)[C@H](CCCNC(=N)N)NC(=O)[C@H](CC(C)C)NC(=O)[C@H](Cc1ccccc1)NC(=O)[C@H](CC(N)=O)NC(=O)[C@H](C)NC(=O)[C@H](CC(C)C)NC(=O)[C@H](CCCNC(=N)N)NC(=O)[C@H](CCC(N)=O)NC(=O)[C@@H](NC(=O)[C@H](C)NC(=O)[C@@H]1CSSC[C@H](NC(=O)[C@@H](N)CCCCNC(=O)CC[C@H](NC(=O)CCCCCCCCCCCCCCCCCCC(=O)O)C(=O)O)C(=O)N[C@@H](CC(N)=O)C(=O)N[C@@H]([C@@H](C)O)C(=O)N[C@@H](C)C(=O)N[C@@H]([C@@H](C)O)C(=O)N1)[C@@H](C)O)C(=O)N1CCC[C@H]1C(=O)N[C@@H](CO)C(=O)N[C@@H](CO)C(=O)N[C@H](C(=O)N[C@@H](CC(N)=O)C(=O)N[C@H](C(=O)NCC(=O)N[C@@H](CO)C(=O)N[C@@H](CCC(=O)O)C(=O)N[C@H](C(=O)N[C@@H](Cc1ccc(O)cc1)C(N)=O)[C@@H](C)O)C(C)C)[C@@H](C)O, Derivative of human amylin; also called compound 27) [N^ε1-[(4S)-4-carboxy-4-(19-carboxynonadecanoylamino)butanoyl]-[Arg17,Pro21,Pro27,Glu35]-h-amylin]
61.7	0.948	65.1	50.3	K([γGlu-C20 diacid])CNTATCATQRLANFLRHSSPNFGAIPSSTNVGSKTY-NH2 (disulfide 2-7; N-terminus assumed; SMILES CC[C@H](C)[C@H](NC(=O)[C@H](C)NC(=O)CNC(=O)[C@H](Cc1ccccc1)NC(=O)[C@H](CC(N)=O)NC(=O)[C@@H]1CCCN1C(=O)[C@H](CO)NC(=O)[C@H](CO)NC(=O)[C@H](Cc1c[nH]cn1)NC(=O)[C@H](CCCNC(=N)N)NC(=O)[C@H](CC(C)C)NC(=O)[C@H](Cc1ccccc1)NC(=O)[C@H](CC(N)=O)NC(=O)[C@H](C)NC(=O)[C@H](CC(C)C)NC(=O)[C@H](CCCNC(=N)N)NC(=O)[C@H](CCC(N)=O)NC(=O)[C@@H](NC(=O)[C@H](C)NC(=O)[C@@H]1CSSC[C@H](NC(=O)[C@@H](N)CCCCNC(=O)CC[C@H](NC(=O)CCCCCCCCCCCCCCCCCCC(=O)O)C(=O)O)C(=O)N[C@@H](CC(N)=O)C(=O)N[C@@H]([C@@H](C)O)C(=O)N[C@@H](C)C(=O)N[C@@H]([C@@H](C)O)C(=O)N1)[C@@H](C)O)C(=O)N1CCC[C@H]1C(=O)N[C@@H](CO)C(=O)N[C@@H](CO)C(=O)N[C@H](C(=O)N[C@@H](CC(N)=O)C(=O)N[C@H](C(=O)NCC(=O)N[C@@H](CO)C(=O)N[C@@H](CCCCN)C(=O)N[C@H](C(=O)N[C@@H](Cc1ccc(O)cc1)C(N)=O)[C@@H](C)O)C(C)C)[C@@H](C)O, Derivative of human amylin; also called compound 35) [N^ε1-[(4S)-4-carboxy-4-(19-carboxynonadecanoylamino)butanoyl]-[Arg17,Pro21,Pro27,Lys35]-h-amylin]
